Laboratory results taken from IntAct's records for PubMed 19274086.

B1: Serine/threonine-protein kinase STK11 (Mus musculus), Q9WTK7 (parent)
chain: MDVADPEPLGLFSEGELMSVGMDTFIHRIDSTEVIYQPRRKRAKLIGKYLMGDLLGEGSYGKVKEVLDSETLCRRAVKILKKKKLRRIPNGEANVKKEIQLLRRLRHRNVIQLVDVLYNEEKQKMYMVMEYCVCGMQEMLDSVPEKRFPVCQAHGYFRQLIDGLEYLHSQGIVHKDIKPGNLLLTTNGTLKISDLGVAEALHPFAVDDTCRTSQGSPAFQPPEIANGLDTFSGFKVDIWSAGVTLYNITTGLYPFEGDNIYKLFENIGRGDFTIPCDCGPPLSDLLRGMLEYEPAKRFSIRQIRQHSWFRKKHPLAEALVPIPPSPDTKDRWRSMTVVPYLEDLHGRAEEEEEEDLFDIEDGIIYTQDFTVPGQVLEEEVGQNGQSHSLPKAVCVNGTEPQLSSKVKPEGRPGTANPARKVCSSNKIRRLSACKQQ

Variants of: B1
Details: with aapk2_human PRKAA2, P54646
Sequence of aapk2_human PRKAA2, P54646 (P54646 whole entry, looked up): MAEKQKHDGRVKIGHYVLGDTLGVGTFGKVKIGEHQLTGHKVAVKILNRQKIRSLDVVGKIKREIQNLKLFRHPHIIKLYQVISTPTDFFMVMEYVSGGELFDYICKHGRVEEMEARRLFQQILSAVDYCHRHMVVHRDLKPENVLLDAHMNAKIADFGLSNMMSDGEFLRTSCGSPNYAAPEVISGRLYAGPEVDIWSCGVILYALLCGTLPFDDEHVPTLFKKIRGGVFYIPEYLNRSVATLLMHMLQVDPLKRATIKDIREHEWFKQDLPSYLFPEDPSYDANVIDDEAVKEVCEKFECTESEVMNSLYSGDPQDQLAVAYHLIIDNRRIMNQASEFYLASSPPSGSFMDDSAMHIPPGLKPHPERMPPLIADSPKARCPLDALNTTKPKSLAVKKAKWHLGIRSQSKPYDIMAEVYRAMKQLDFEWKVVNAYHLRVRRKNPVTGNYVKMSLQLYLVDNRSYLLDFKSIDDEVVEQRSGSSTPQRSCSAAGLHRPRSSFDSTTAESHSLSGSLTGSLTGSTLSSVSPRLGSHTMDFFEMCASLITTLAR

Row | effect of a mutation on the interaction | Variant
1 | disrupting interaction strength | MDVADPEPLGLFSEGELMSVGMDTFIHRIDSTEVIYQPRRKRAKLIGKYLMGDLLGEGSYGKVKEVLDSETLCRRAVKILKKKKLRRIPNGEANVKKEIQLLRRLRHRNVIQLVDVLYNEEKQKMYMVMEYCVCGMQEMLDSVPEKRFPVCQAHGYFRQLIDGLEYLHSQGIVHKDIKPGNLLLTTNGTLKISALGVAEALHPFAVDDTCRTSQGSPAFQPPEIANGLDTFSGFKVDIWSAGVTLYNITTGLYPFEGDNIYKLFENIGRGDFTIPCDCGPPLSDLLRGMLEYEPAKRFSIRQIRQHSWFRKKHPLAEALVPIPPSPDTKDRWRSMTVVPYLEDLHGRAEEEEEEDLFDIEDGIIYTQDFTVPGQVLEEEVGQNGQSHSLPKAVCVNGTEPQLSSKVKPEGRPGTANPARKVCSSNKIRRLSACKQQ [D194A]
2 | decreasing interaction strength | MDVADPEPLGLFSEGELMSVGMDTFIHRIDSTEVIYQPRRKRAKLIGKYLMGDLLGEGSYGKVKEVLDSETLCRRAVKILKKKKLRRIPNGEANVKKEIQLLRRLRHRNVIQLVDVLYNEEKQKMYMVMEYCVCGMQEMLDSVPEKRFPVCQAHGYFRQLIDGLEYLHSQGIVHKDIKPGNLLLTTNGTLKISDLGVAEALHPFAVDDTCRTSQGSPAFQPPEIANGLDTFSGFKVDIWSAGVTLYNITTGLYPFEGDNIYKLFENIGRGDFTIPCDCGPPLSDLLRGMLEYEPAKRFSIRQIRQHSWFRKKHPLAEALVPIPPSPDTKDRWRSMTVVPYLEDLHGRAEEEEEEDLFDIEDGIIYTQDFTVPGQVLEEEVGQNGQSHSLPKAVCVNGTEPQLSSKVKPEGRPGTANPARKVCSSNKIRRLDACKQQ [S431D]
3 | decreasing interaction strength | MDVADPEPLGLFSEGELMSVGMDTFIHRIDSTEVIYQPRRKRAKLIGKYLMGDLLGEGSYGKVKEVLDSETLCRRAVKILKKKKLRRIPNGEANVKKEIQLLRRLRHRNVIQLVDVLYNEEKQKMYMVMEYCVCGMQEMLDSVPEKRFPVCQAHGYFRQLIDGLEYLHSQGIVHKDIKPGNLLLTTNGTLKISDLGVAEALHPFAVDDTCRTSQGSPAFQPPEIANGLDTFSGFKVDIWSAGVTLYNITTGLYPFEGDNIYKLFENIGRGDFTIPCDCGPPLSDLLRGMLEYEPAKRFSIRQIRQHSWFRKKHPLAEALVPIPPSPDTKDRWRSMTVVPYLEDLHGRAEEEEEEDLFDIEDGIIYTQDFTVPGQVLEEEVGQNGQSHSLPKAVCVNGTEPQLSSKVKPEGRPGTANPARKVCSSNKIRRLAACKQQ [S431A]
